Molecular target: the molecule itself
Assay: crystal structure

B1: Δ25 construct of chicken ASIC1a (domain or fragment, UniProt Q1XA76 25-463, looked up)
chain: SSTLHGISHIFSYERLSLKRVVWALCFMGSLALLALVCTNRIQYYFLYPHVTKLDEVAATRLTFPAVTFCNLNEFRFSRVTKNDLYHAGELLALLNNRYEIPDTQTADEKQLEILQDKANFRNFKPKPFNMLEFYDRAGHDIREMLLSCFFRGEQCSPEDFKVVFTRYGKCYTFNAGQDGKPRLITMKGGTGNGLEIMLDIQQDEYLPVWGETDETSFEAGIKVQIHSQDEPPLIDQLGFGVAPGFQTFVSCQEQRLIYLPPPWGDCKATTGDSEFYDTYSITACRIDCETRYLVENCNCRMVHMPGDAPYCTPEQYKECADPALDFLVEKDNEYCVCEMPCNVTRYGKELSMVKIPSKASAKYLAKKYNKSEQYIGENILVLDIFFEALNYETIEQKKAYEVAGLLGDIGGQMGLFIGASILTVLELFDYAYEVIKHR
Q: Does B1 bind?
A: Result: binds

— PMC5966032 (Nature, 2018)
